Assay results from article PMC6745501, “Plant photoreceptors and their signaling components compete for COP1 binding via VP peptide motifs” (The EMBO Journal, 2019).
Several values for one entry are separate records, joined by “and”; a condition that tells them apart may be missing. Equal values may be shown once.

How the values were obtained:
[1] = target: COP1 WD40 domain; experiment: Grating-coupled interferometry (GCI) binding kinetics versus the COP1 WD40 domain; set-up: species or system Arabidopsis; conditions: for Kd: ligand COP1 (2,000 pg/mm^2), analyte pre-monomerized by UV-B, highest concentration 2 μM, 150 mM NaCl, 20 mM HEPES 7.4, 2 mM BME, 25°C, 1:1 binding model, read-out: Kd (dissociation constant), + UV-B
Method: For CRY2 activation, proteins were diluted to their final assay concentrations (as indicated in the figure legends) in Eppendorf tubes and exposed to 10 min of fluorescent light on ice.
The Creoptix WAVE system (Creoptix AG), a label‐free surface biosensor, was used to perform GCI experiments. All experiments were performed on 2PCH or 4PCH WAVEchips (quasi‐planar polycarboxylate surface; Creoptix AG). After a borate buffer conditioning (100 mM sodium borate pH 9.0, 1 M NaCl; Xantec), COP1 (ligand) was immobilized on the chip surface using standard amine‐coupling: 7 min activation [1:1 mix of 400 mM N‐(3‐dimethylaminopropyl)‐N′‐ethylcarbodiimide hydrochloride and 100 mM N‐hydroxysuccinimide (both Xantec)], injection of COP1 (10 μg/ml) in 10 mM sodium acetate pH 5.0 (Sigma) until the desired density was reached, and final quenching with 1 M ethanolamine pH 8.0 for 7 min (Xantec). […] Blank injections were used for double referencing and a dimethyl sulfoxide (DMSO) calibration curve for bulk correction. Analysis and correction of the obtained data were performed using the Creoptix WAVEcontrol software (applied corrections: X and Y offset; DMSO calibration; double referencing), and a one‐to‐one binding model or a heterogenous ligand model with bulk correction was used to fit all experiments.

[2] = tested on: COP1 WD40 domain; experiment: Analytical size-exclusion chromatography binding assay; set-up: species or system Arabidopsis; conditions: Superdex 200 Increase 10/300 GL, ~4 μM per protein, 150 mM NaCl, 20 mM HEPES 7.4, 2 mM BME, protein pre-monomerized by UV-B
Method: 500 μl of the respective protein solution or a mixture (~ 4 μM per protein) was loaded sequentially onto the column, and elution at 0.75 ml/min was monitored by UV absorbance at 280 nm.

B1: UVR8^12–381: UVR8 β-propeller core, residues 12–381 (protein, UniProt Q9FN03 12-381, looked up, fragment)
chain: APPRKVLIISAGASHSVALLSGDIVCSWGRGEDGQLGHGDAEDRPSPTQLSALDGHQIVSVTCGADHTVAYSQSGMEVYSWGWGDFGRLGHGNSSDLFTPLPIKALHGIRIKQIACGDSHCLAVTMEGEVQSWGRNQNGQLGLGDTEDSLVPQKIQAFEGIRIKMVAAGAEHTAAVTEDGDLYGWGWGRYGNLGLGDRTDRLVPERVTSTGGEKMSMVACGWRHTISVSYSGALYTYGWSKYGQLGHGDLEDHLIPHKLEALSNSFISQISGGWRHTMALTSDGKLYGWGWNKFGQVGVGNNLDQCSPVQVRFPDDQKVVQVSCGWRHTLAVTERNNVFAWGRGTNGQLGIGESVDRNFPKIIEALSVDG
For B1, the Kd [1] was ~500 nM and 583 nM and the “Interaction with the COP1 WD40 domain in size-exclusion chromatography, UV-B-activated” value [2] was “interacts”.

B2: CRY2: recombinant full-length Arabidopsis cryptochrome 2 (protein)
chain: MKMDKKTIVWFRRDLRIEDNPALAAAAHEGSVFPVFIWCPEEEGQFYPGRASRWWMKQSLAHLSQSLKALGSDLTLIKTHNTISAILDCIRVTGATKVVFNHLYDPVSLVRDHTVKEKLVERGISVQSYNGDLLYEPWEIYCEKGKPFTSFNSYWKKCLDMSIESVMLPPPWRLMPITAAAEAIWACSIEELGLENEAEKPSNALLTRAWSPGWSNADKLLNEFIEKQLIDYAKNSKKVVGNSTSLLSPYLHFGEISVRHVFQCARMKQIIWARDKNSEGEESADLFLRGIGLREYSRYICFNFPFTHEQSLLSHLRFFPWDADVDKFKAWRQGRTGYPLVDAGMRELWATGWMHNRIRVIVSSFAVKFLLLPWKWGMKYFWDTLLDADLECDILGWQYISGSIPDGHELDRLDNPALQGAKYDPEGEYIRQWLPELARLPTEWIHHPWDAPLTVLKASGVELGTNYAKPIVDIDTARELLAKAISRTREAQIMIGAAPDEIVADSFEALGANTIKEPGLCPSVSSNDQQVPSAVRYNGSKRVKPEEEEERDMKKSRGFDERELFSTAESSSSSSVFFVSQSCSLASEGKNLEGIQDSSDQITTSLGKNGCK
modifications: left off: His10, N-terminal, cleaved | Twin-Strep, N-terminal, cleaved
B2 was tested, and the “Binding to the COP1 WD40 domain in the absence of supplemental fluorescent light” value ([1]; ligand COP1 (2000 pg/mm2), analyte + no additional light, highest concentration 14 μM) was “No binding was observed”.

B3: UVR8^12–415: UVR8 core with C-terminus extended to include the VP peptide motif, residues 12–415 (protein)
chain: APPRKVLIISAGASHSVALLSGDIVCSWGRGEDGQLGHGDAEDRPSPTQLSALDGHQIVSVTCGADHTVAYSQSGMEVYSWGWGDFGRLGHGNSSDLFTPLPIKALHGIRIKQIACGDSHCLAVTMEGEVQSWGRNQNGQLGLGDTEDSLVPQKIQAFEGIRIKMVAAGAEHTAAVTEDGDLYGWGWGRYGNLGLGDRTDRLVPERVTSTGGEKMSMVACGWRHTISVSYSGALYTYGWSKYGQLGHGDLEDHLIPHKLEALSNSFISQISGGWRHTMALTSDGKLYGWGWNKFGQVGVGNNLDQCSPVQVRFPDDQKVVQVSCGWRHTLAVTERNNVFAWGRGTNGQLGIGESVDRNFPKIIEALSVDGASGQHIESSNIDPSSGKSWVSPAERYAVVPDETG
modifications: left off: His10, N-terminal, cleaved | Twin-Strep, N-terminal, cleaved
B3 gave a Kd [1] of 120 nM.
